In paper PMC7705432 (Cell Research, 2020):

B1: H014 Fab (Fab, V domains shown)
VH: VQLVQSGAEVKKPGATVKISCKVSGYSFSNYYIHWVKQAPGKSLEWIGYIDPFNGGTSDNLKFKGAATLTADTSTDTAYMELSSLRSEDTAVYYCARSEYDPYYVMDYWGQGTTVTVSS
VL: IVLTQSPFQSVSPKEKVTITCRASQSISSNLHWYQQKPDQSPKLLIKYASQSISGIPSRFSGSGSGTDFTLTINSLEAEDFGIYFCQQTNFWPYIFGQGTKLEIL
B2: P17 Fab (Fab, V domains shown)
VH: QQLVESGGGVVQPGRSLRLSCAASGFTFSSYAMHWVRQAPGKGLEWVAVISYDGSNKYYADSVKGRFTISRDNSKNTLYLQMNSLRAEDTAVYYCARHATLMNNKDIWGQGTLVTVSS
VL: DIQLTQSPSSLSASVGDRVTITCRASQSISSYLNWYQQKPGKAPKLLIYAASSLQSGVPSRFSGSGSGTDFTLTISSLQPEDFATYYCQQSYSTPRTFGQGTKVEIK
notes: also called P17 Fabs

Target: T1, SARS-CoV-2 S trimer (SARS-CoV-2, Wuhan-Hu-1 (GenBank …, stabilised))
T1 construct: also called Spike (S) protein
Assay: cryo-EM structure
Conditions: both partners purified

Row | Binder | stoichiometry N [Fabs per S trimer]
1 | B1 | 3
2 | B2 | 3
